Measurements: the supplement of paper PMC10065799, “High-throughput profiling of sequence recognition by tyrosine kinases and SH2 domains using bacterial peptide display” (eLife, 2023)

Tested on: AncSZ
Test: phosphorylation enrichment, bacterial display (enrichment ratio); higher = better substrate or ligand; peptides without Tyr show the background
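Also: 11-residue human phosphosite peptides and single-mutation variants displayed on the E. coli surface, counted by deep sequencing, each peptide's frequency after selection divided by its frequency in the unselected input library; frequency after pTyr selection over input frequency; kinase dosed for 20-30% of maximal phosphorylation in three min.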

Sequence	phosphorylation enrichment
GITVAYTIPKK [UBA5_Y372]	0.763
PIDLFYLMDLS [ITGB2_Y131_YF]	1.61
GKAFIYASHIV [ZNF573_Y229]	0.802
KRYRIYHLATS [BRCA2_Y3009]	0.564
ICTVDYLLRLQ [RYR1_Y3921]	1.21
VGSIEYLKREW [KCNMA1_Y885]	0.823
EFKKKYSDADI [CKAP5_Y1860_YF]	0.576
GVLKEYVVKVL [CPS1_Y529_G530V]	0.989
ELPEKYSQNIY [PKP2_Y626]	0.905
RSRQIYDAYIM [GRK3_Y109]	0.914
KAIMIYVSSFY [ACTN4_Y260_T259I]	0.963
DLDTEYGSGFP [RNASEH2A_Y206_D205E_YF]	1.55
GGFTCCCDGKK [PROS1_Y266_Y266C_YF]	1.12
ISGGGYRARPA [FGB_Y71]	0.485
RIILLYIFLKN [STXBP1_Y411]	0.83
PGRRFYVVACD [RNASE3_Y134]	1.43
KAIDMYLMGCF [GABRB2_Y308]	1.27

Sequence	phosphorylation enrichment
RIGRKCKKVRF [F8_Y442_Y442C]	0.608
FDCKWYIPLTD [BCR_Y756_YF]	1.45
NDLMEYPKQHG [ASS1_Y163_A164P]	0.738
LNAGAYSKVVQ [PPT1_Y172]	1.12
ADARMCGVLPW [PLP1_Y207_Y207C]	0.93
RSRSSYTHGLN [MYCT1_Y116]	1.42
DAVAVCHGKIS [SH2D1A_Y7_Y7C]	0.658
PFTRNYYVQAV [CYBA_Y87_R90Q]	1.03
LFSGDYFRIQG [DDR2_Y740_YF]	4.61
SVKVYYKKCWS [EPHA7_Y202]	0.951
GGTPLYRDRQG [AGXT_Y194_M195R]	0.652
GSCQEYTGAPY [NAXD_Y85_G81S]	1.14
RHNEIYEIKVD [LGR5_Y387]	1.12
KLYRVYCDMNT [FGB_Y269_P265L]	0.978
KASRKYFAMKI [AKT3_Y173_G171R_YF]	0.555
DPLLTYRFPPK [LMNA_Y481]	0.597

Molecular target: EPHB1 (UniProt P54762)
Test: as above

Chain of EPHB1 (P54762 whole entry, looked up): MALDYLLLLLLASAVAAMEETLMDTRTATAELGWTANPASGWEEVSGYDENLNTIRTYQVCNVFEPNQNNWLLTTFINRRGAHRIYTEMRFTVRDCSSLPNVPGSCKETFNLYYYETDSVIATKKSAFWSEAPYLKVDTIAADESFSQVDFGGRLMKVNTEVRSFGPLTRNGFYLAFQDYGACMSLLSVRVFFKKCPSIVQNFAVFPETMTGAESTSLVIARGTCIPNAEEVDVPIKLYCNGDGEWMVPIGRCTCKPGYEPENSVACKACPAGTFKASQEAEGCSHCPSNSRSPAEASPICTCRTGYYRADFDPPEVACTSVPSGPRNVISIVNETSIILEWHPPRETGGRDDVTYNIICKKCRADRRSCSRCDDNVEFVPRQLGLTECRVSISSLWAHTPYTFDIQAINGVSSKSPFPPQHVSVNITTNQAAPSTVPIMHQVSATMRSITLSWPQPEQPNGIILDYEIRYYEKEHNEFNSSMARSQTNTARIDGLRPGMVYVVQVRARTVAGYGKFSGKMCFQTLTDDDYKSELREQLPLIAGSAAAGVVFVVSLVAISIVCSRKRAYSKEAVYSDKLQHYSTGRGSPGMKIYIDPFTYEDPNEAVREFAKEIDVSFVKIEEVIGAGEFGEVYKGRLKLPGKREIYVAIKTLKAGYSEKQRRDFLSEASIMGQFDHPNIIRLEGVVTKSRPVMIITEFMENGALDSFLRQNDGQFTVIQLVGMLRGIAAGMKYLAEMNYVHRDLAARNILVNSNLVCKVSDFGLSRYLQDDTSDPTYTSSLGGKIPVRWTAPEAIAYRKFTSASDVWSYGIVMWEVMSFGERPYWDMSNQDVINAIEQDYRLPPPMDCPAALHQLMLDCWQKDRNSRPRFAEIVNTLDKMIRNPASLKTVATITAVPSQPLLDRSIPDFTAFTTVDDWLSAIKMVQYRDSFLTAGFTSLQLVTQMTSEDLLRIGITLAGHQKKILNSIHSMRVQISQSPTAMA

Sequence	phosphorylation enrichment
GITVAYTIPKK [UBA5_Y372]	0.441
PIDLFYLMDLS [ITGB2_Y131_YF]	0.737
GKAFIYASHIV [ZNF573_Y229]	0.557
KRYRIYHLATS [BRCA2_Y3009]	0.456
ICTVDYLLRLQ [RYR1_Y3921]	0.659
VGSIEYLKREW [KCNMA1_Y885]	0.35
EFKKKYSDADI [CKAP5_Y1860_YF]	0.303
GVLKEYVVKVL [CPS1_Y529_G530V]	0.477
ELPEKYSQNIY [PKP2_Y626]	0.459
RSRQIYDAYIM [GRK3_Y109]	3
KAIMIYVSSFY [ACTN4_Y260_T259I]	0.47
DLDTEYGSGFP [RNASEH2A_Y206_D205E_YF]	0.676
GGFTCCCDGKK [PROS1_Y266_Y266C_YF]	0.736
ISGGGYRARPA [FGB_Y71]	0.402
RIILLYIFLKN [STXBP1_Y411]	0.298
PGRRFYVVACD [RNASE3_Y134]	0.536
KAIDMYLMGCF [GABRB2_Y308]	0.566

Sequence	phosphorylation enrichment
RIGRKCKKVRF [F8_Y442_Y442C]	0.567
FDCKWYIPLTD [BCR_Y756_YF]	0.998
NDLMEYPKQHG [ASS1_Y163_A164P]	0.46
LNAGAYSKVVQ [PPT1_Y172]	0.703
ADARMCGVLPW [PLP1_Y207_Y207C]	0.606
RSRSSYTHGLN [MYCT1_Y116]	1
DAVAVCHGKIS [SH2D1A_Y7_Y7C]	0.387
PFTRNYYVQAV [CYBA_Y87_R90Q]	0.787
LFSGDYFRIQG [DDR2_Y740_YF]	6.99
SVKVYYKKCWS [EPHA7_Y202]	0.549
GGTPLYRDRQG [AGXT_Y194_M195R]	0.383
GSCQEYTGAPY [NAXD_Y85_G81S]	0.573
RHNEIYEIKVD [LGR5_Y387]	0.312
KLYRVYCDMNT [FGB_Y269_P265L]	0.769
KASRKYFAMKI [AKT3_Y173_G171R_YF]	0.286
DPLLTYRFPPK [LMNA_Y481]	0.422

Molecular target: EPHB2 (UniProt P29323)
Test: as above

Chain of EPHB2 (P29323 whole entry, looked up): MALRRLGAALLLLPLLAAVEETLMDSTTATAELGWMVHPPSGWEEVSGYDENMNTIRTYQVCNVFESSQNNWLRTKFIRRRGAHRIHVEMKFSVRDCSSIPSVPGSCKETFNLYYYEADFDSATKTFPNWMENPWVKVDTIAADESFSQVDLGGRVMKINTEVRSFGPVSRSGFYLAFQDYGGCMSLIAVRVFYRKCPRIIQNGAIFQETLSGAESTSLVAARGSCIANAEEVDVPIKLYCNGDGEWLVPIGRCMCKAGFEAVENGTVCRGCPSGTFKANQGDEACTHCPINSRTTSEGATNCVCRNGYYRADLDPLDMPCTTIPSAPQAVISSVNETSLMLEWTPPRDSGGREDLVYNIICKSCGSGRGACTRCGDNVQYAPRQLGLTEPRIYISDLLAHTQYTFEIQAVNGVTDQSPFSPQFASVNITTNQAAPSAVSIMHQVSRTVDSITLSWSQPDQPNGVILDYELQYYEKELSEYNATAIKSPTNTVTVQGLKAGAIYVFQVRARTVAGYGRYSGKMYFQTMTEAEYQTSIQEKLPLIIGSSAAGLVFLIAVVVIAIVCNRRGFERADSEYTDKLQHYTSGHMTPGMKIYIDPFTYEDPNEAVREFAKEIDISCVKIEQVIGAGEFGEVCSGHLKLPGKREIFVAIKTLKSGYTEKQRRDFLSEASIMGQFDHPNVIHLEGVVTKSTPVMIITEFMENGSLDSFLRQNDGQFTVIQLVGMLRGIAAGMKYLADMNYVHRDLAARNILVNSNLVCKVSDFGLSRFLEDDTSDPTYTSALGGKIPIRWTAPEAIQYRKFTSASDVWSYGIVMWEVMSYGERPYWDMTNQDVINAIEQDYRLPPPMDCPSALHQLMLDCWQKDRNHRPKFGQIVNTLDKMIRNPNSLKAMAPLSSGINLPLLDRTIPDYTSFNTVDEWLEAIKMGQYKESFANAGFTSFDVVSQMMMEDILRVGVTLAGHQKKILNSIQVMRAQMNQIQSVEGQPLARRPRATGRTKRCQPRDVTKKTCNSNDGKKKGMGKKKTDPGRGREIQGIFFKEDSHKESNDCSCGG

Sequence	phosphorylation enrichment
GITVAYTIPKK [UBA5_Y372]	0.331
PIDLFYLMDLS [ITGB2_Y131_YF]	0.559
GKAFIYASHIV [ZNF573_Y229]	0.42
KRYRIYHLATS [BRCA2_Y3009]	0.461
ICTVDYLLRLQ [RYR1_Y3921]	0.618
VGSIEYLKREW [KCNMA1_Y885]	0.487
EFKKKYSDADI [CKAP5_Y1860_YF]	0.565
GVLKEYVVKVL [CPS1_Y529_G530V]	0.491
ELPEKYSQNIY [PKP2_Y626]	0.526
RSRQIYDAYIM [GRK3_Y109]	6.14
KAIMIYVSSFY [ACTN4_Y260_T259I]	0.52
DLDTEYGSGFP [RNASEH2A_Y206_D205E_YF]	0.642
GGFTCCCDGKK [PROS1_Y266_Y266C_YF]	0.659
ISGGGYRARPA [FGB_Y71]	0.308
RIILLYIFLKN [STXBP1_Y411]	0.332
PGRRFYVVACD [RNASE3_Y134]	1.19
KAIDMYLMGCF [GABRB2_Y308]	0.551

Sequence	phosphorylation enrichment
RIGRKCKKVRF [F8_Y442_Y442C]	0.556
FDCKWYIPLTD [BCR_Y756_YF]	0.818
NDLMEYPKQHG [ASS1_Y163_A164P]	0.48
LNAGAYSKVVQ [PPT1_Y172]	0.557
ADARMCGVLPW [PLP1_Y207_Y207C]	0.524
RSRSSYTHGLN [MYCT1_Y116]	0.882
DAVAVCHGKIS [SH2D1A_Y7_Y7C]	0.471
PFTRNYYVQAV [CYBA_Y87_R90Q]	0.706
LFSGDYFRIQG [DDR2_Y740_YF]	4.1
SVKVYYKKCWS [EPHA7_Y202]	0.432
GGTPLYRDRQG [AGXT_Y194_M195R]	0.435
GSCQEYTGAPY [NAXD_Y85_G81S]	0.537
RHNEIYEIKVD [LGR5_Y387]	0.671
KLYRVYCDMNT [FGB_Y269_P265L]	0.702
KASRKYFAMKI [AKT3_Y173_G171R_YF]	0.391
DPLLTYRFPPK [LMNA_Y481]	0.349

Molecular target: FGFR1 (UniProt P11362)
Test: as above

Chain of FGFR1 (P11362 whole entry, looked up): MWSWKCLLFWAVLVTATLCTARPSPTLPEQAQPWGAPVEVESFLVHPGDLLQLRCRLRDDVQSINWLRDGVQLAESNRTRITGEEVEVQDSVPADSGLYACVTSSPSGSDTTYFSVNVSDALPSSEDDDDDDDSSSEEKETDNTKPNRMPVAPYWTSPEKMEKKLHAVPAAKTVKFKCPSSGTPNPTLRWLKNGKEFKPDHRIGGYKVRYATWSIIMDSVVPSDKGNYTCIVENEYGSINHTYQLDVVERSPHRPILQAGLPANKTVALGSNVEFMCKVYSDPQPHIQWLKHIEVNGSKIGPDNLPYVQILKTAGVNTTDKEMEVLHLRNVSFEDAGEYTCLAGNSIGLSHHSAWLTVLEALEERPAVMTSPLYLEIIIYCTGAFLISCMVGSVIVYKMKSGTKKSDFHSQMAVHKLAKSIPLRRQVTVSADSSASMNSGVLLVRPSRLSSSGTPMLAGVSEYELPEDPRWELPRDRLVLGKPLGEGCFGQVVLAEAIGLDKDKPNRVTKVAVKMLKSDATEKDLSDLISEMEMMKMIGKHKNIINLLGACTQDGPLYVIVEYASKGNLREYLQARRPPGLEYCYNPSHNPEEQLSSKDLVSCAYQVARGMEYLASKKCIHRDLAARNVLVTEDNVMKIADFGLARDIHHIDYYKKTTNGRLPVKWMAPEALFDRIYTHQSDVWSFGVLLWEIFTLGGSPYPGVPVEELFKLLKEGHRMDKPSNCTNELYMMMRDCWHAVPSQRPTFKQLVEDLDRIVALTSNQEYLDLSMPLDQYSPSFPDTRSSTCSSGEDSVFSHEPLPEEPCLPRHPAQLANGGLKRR

Sequence	phosphorylation enrichment
GITVAYTIPKK [UBA5_Y372]	0.337
PIDLFYLMDLS [ITGB2_Y131_YF]	0.633
GKAFIYASHIV [ZNF573_Y229]	0.427
KRYRIYHLATS [BRCA2_Y3009]	0.487
ICTVDYLLRLQ [RYR1_Y3921]	0.529
VGSIEYLKREW [KCNMA1_Y885]	0.523
EFKKKYSDADI [CKAP5_Y1860_YF]	0.413
GVLKEYVVKVL [CPS1_Y529_G530V]	0.383
ELPEKYSQNIY [PKP2_Y626]	0.52
RSRQIYDAYIM [GRK3_Y109]	0.511
KAIMIYVSSFY [ACTN4_Y260_T259I]	0.464
DLDTEYGSGFP [RNASEH2A_Y206_D205E_YF]	0.622
GGFTCCCDGKK [PROS1_Y266_Y266C_YF]	0.509
ISGGGYRARPA [FGB_Y71]	0.345
RIILLYIFLKN [STXBP1_Y411]	0.466
PGRRFYVVACD [RNASE3_Y134]	0.654
KAIDMYLMGCF [GABRB2_Y308]	0.504

Sequence	phosphorylation enrichment
RIGRKCKKVRF [F8_Y442_Y442C]	1.67
FDCKWYIPLTD [BCR_Y756_YF]	0.661
NDLMEYPKQHG [ASS1_Y163_A164P]	0.506
LNAGAYSKVVQ [PPT1_Y172]	0.41
ADARMCGVLPW [PLP1_Y207_Y207C]	0.489
RSRSSYTHGLN [MYCT1_Y116]	0.588
DAVAVCHGKIS [SH2D1A_Y7_Y7C]	0.467
PFTRNYYVQAV [CYBA_Y87_R90Q]	1.99
LFSGDYFRIQG [DDR2_Y740_YF]	23.1
SVKVYYKKCWS [EPHA7_Y202]	0.414
GGTPLYRDRQG [AGXT_Y194_M195R]	0.44
GSCQEYTGAPY [NAXD_Y85_G81S]	0.558
RHNEIYEIKVD [LGR5_Y387]	0.724
KLYRVYCDMNT [FGB_Y269_P265L]	0.452
KASRKYFAMKI [AKT3_Y173_G171R_YF]	0.365
DPLLTYRFPPK [LMNA_Y481]	0.452
